Reference: the supplement of paper PMC9112550, “Optimization of the antimicrobial peptide Bac7 by deep mutational scanning” (BMC Biology, 2022)

System: Escherichia coli TOP10
Test: shrunken log2 fold change of peptide-encoding DNA abundance (4.5 h post-induction vs induction); higher = less antimicrobial activity (less host growth inhibition)
Conditions: time post-induction: 4.5 h; library: site-saturation at positions 5, 18, 19, 20
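Note: peptides expressed intracellularly from a pBAD plasmid library in pooled LB shake-flask culture, induced with 0.3% L-arabinose, DNA abundance read by NGS, three biological replicates, DESeq2 with apeglm shrinkage.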

Sequence | shrunken log2 fold change
RRIRMRPPRLPRPRPRPEREPRP | 1.76
RRIRMRPPRLPRPRPRPERPPRP | 0.338
RRIRMRPPRLPRPRPRPESRPRP | 2.68
RRIRMRPPRLPRPRPRPEWCPRP | 0.234
RRIRMRPPRLPRPRPRPEWQPRP | 0.23
RRIRMRPPRLPRPRPRPEWVPRP | 0.32
RRIRMRPPRLPRPRPRPEYAPRP | 0.0325
RRIRMRPPRLPRPRPRPEYGPRP | 0.132
RRIRMRPPRLPRPRPRPFCDPRP | 0.179
RRIRMRPPRLPRPRPRPFDYPRP | -0.16
RRIRMRPPRLPRPRPRPFEKPRP | 0.00408
RRIRMRPPRLPRPRPRPFHMPRP | 0.105
RRIRMRPPRLPRPRPRPFHSPRP | -0.0121
RRIRMRPPRLPRPRPRPFHTPRP | 0.0481
RRIRMRPPRLPRPRPRPFICPRP | 0.0468
RRIRMRPPRLPRPRPRPFKTPRP | -0.117
RRIRMRPPRLPRPRPRPFLCPRP | -0.0722
RRIRMRPPRLPRPRPRPFLYPRP | -0.124
RRIRMRPPRLPRPRPRPFMSPRP | 0.0642
RRIRMRPPRLPRPRPRPFNEPRP | -0.488
RRIRMRPPRLPRPRPRPFPEPRP | 0.562
RRIRMRPPRLPRPRPRPFPWPRP | 0.114
RRIRMRPPRLPRPRPRPFRLPRP | -0.1
RRIRMRPPRLPRPRPRPFRVPRP | 0.22
RRIRMRPPRLPRPRPRPFSMPRP | -0.112

Sequence | shrunken log2 fold change
RRIRMRPPRLPRPRPRPFTMPRP | -0.55
RRIRMRPPRLPRPRPRPFTNPRP | 3.34
RRIRMRPPRLPRPRPRPGAFPRP | 0.611
RRIRMRPPRLPRPRPRPGCGPRP | 1.04
RRIRMRPPRLPRPRPRPGDSPRP | 0.557
RRIRMRPPRLPRPRPRPGEEPRP | 3.02
RRIRMRPPRLPRPRPRPGFEPRP | 0.526
RRIRMRPPRLPRPRPRPGGMPRP | 0.789
RRIRMRPPRLPRPRPRPGIQPRP | -0.105
RRIRMRPPRLPRPRPRPGKMPRP | 0.137
RRIRMRPPRLPRPRPRPGLHPRP | 0.412
RRIRMRPPRLPRPRPRPGLKPRP | 0.363
RRIRMRPPRLPRPRPRPGMEPRP | 0.183
RRIRMRPPRLPRPRPRPGMQPRP | -0.00144
RRIRMRPPRLPRPRPRPGPRPRP | 1.46
RRIRMRPPRLPRPRPRPGRYPRP | 0.0164
RRIRMRPPRLPRPRPRPGSFPRP | 1.04
RRIRMRPPRLPRPRPRPGSMPRP | 0.668
RRIRMRPPRLPRPRPRPGSNPRP | 0.211
RRIRMRPPRLPRPRPRPGTCPRP | 0.851
RRIRMRPPRLPRPRPRPGVIPRP | 3.26
RRIRMRPPRLPRPRPRPGVLPRP | 0.135
RRIRMRPPRLPRPRPRPGVQPRP | 0.16
RRIRMRPPRLPRPRPRPGVVPRP | 0.761
RRIRMRPPRLPRPRPRPGWHPRP | 0.41

Sequence | shrunken log2 fold change
RRIRMRPPRLPRPRPRPGWLPRP | 0.533
RRIRMRPPRLPRPRPRPGWTPRP | 0.185
RRIRMRPPRLPRPRPRPGYPPRP | 0.0749
RRIRMRPPRLPRPRPRPHALPRP | -0.541
RRIRMRPPRLPRPRPRPHAWPRP | 0.365
RRIRMRPPRLPRPRPRPHCWPRP | -0.207
RRIRMRPPRLPRPRPRPHEIPRP | 0.356
RRIRMRPPRLPRPRPRPHFFPRP | -0.134
RRIRMRPPRLPRPRPRPHGGPRP | -0.0492
RRIRMRPPRLPRPRPRPHGWPRP | 0.839
RRIRMRPPRLPRPRPRPHIKPRP | -0.501
RRIRMRPPRLPRPRPRPHIQPRP | -0.421
RRIRMRPPRLPRPRPRPHMSPRP | -0.123
RRIRMRPPRLPRPRPRPHNDPRP | 0.00915
RRIRMRPPRLPRPRPRPHPDPRP | -0.0902
RRIRMRPPRLPRPRPRPHPTPRP | 0.805
RRIRMRPPRLPRPRPRPHQMPRP | 0.126
RRIRMRPPRLPRPRPRPHQRPRP | 0.236
RRIRMRPPRLPRPRPRPHRMPRP | -0.0254
RRIRMRPPRLPRPRPRPHRNPRP | -0.181
RRIRMRPPRLPRPRPRPHSQPRP | -0.00628
RRIRMRPPRLPRPRPRPHTDPRP | 0.0445
RRIRMRPPRLPRPRPRPHTFPRP | -0.384
RRIRMRPPRLPRPRPRPHTSPRP | 0.242
RRIRMRPPRLPRPRPRPHWTPRP | -0.106

Sequence | shrunken log2 fold change
RRIRMRPPRLPRPRPRPHYMPRP | -0.425
RRIRMRPPRLPRPRPRPICWPRP | 0.0409
RRIRMRPPRLPRPRPRPIDFPRP | -0.00165
RRIRMRPPRLPRPRPRPIGHPRP | 0.0299
RRIRMRPPRLPRPRPRPIGQPRP | 0.00911
RRIRMRPPRLPRPRPRPIHLPRP | -0.209
RRIRMRPPRLPRPRPRPIMNPRP | 0.284
RRIRMRPPRLPRPRPRPIMSPRP | 0.0205
RRIRMRPPRLPRPRPRPINKPRP | -0.375
RRIRMRPPRLPRPRPRPIPKPRP | 0.0362
RRIRMRPPRLPRPRPRPIPLPRP | 0.00552
RRIRMRPPRLPRPRPRPIPPPRP | 0.369
RRIRMRPPRLPRPRPRPIPQPRP | 0.256
RRIRMRPPRLPRPRPRPIQPPRP | 0.122
RRIRMRPPRLPRPRPRPIRSPRP | -0.0819
RRIRMRPPRLPRPRPRPISAPRP | 0.0396
RRIRMRPPRLPRPRPRPITCPRP | -0.0534
RRIRMRPPRLPRPRPRPITKPRP | 0.0745
RRIRMRPPRLPRPRPRPITQPRP | -0.00846
RRIRMRPPRLPRPRPRPIVCPRP | -0.0438
RRIRMRPPRLPRPRPRPIWGPRP | 0.0405
RRIRMRPPRLPRPRPRPIWIPRP | 0.14
RRIRMRPPRLPRPRPRPIWMPRP | -0.101
RRIRMRPPRLPRPRPRPKADPRP | 2.35
RRIRMRPPRLPRPRPRPKCHPRP | 0.335

Sequence | shrunken log2 fold change
RRIRMRPPRLPRPRPRPKDQPRP | 2.28
RRIRMRPPRLPRPRPRPKEKPRP | 0.0504
RRIRMRPPRLPRPRPRPKELPRP | 0.642
RRIRMRPPRLPRPRPRPKEPPRP | -0.074
RRIRMRPPRLPRPRPRPKEQPRP | 1.26
RRIRMRPPRLPRPRPRPKFLPRP | 0.192
RRIRMRPPRLPRPRPRPKHIPRP | -0.0498
RRIRMRPPRLPRPRPRPKIAPRP | 0.244
RRIRMRPPRLPRPRPRPKIMPRP | -0.208
RRIRMRPPRLPRPRPRPKLKPRP | 2.65
RRIRMRPPRLPRPRPRPKLSPRP | 0.982
RRIRMRPPRLPRPRPRPKMMPRP | 0.351
RRIRMRPPRLPRPRPRPKNAPRP | 0.901
RRIRMRPPRLPRPRPRPKNGPRP | 0.0732
RRIRMRPPRLPRPRPRPKNMPRP | -0.0276
RRIRMRPPRLPRPRPRPKPTPRP | 0.266
RRIRMRPPRLPRPRPRPKQVPRP | 0.0554
RRIRMRPPRLPRPRPRPKRDPRP | 1.15
RRIRMRPPRLPRPRPRPKSSPRP | 0.763
RRIRMRPPRLPRPRPRPKTHPRP | 0.612
RRIRMRPPRLPRPRPRPKTLPRP | 0.687
RRIRMRPPRLPRPRPRPKTNPRP | 0.864
RRIRMRPPRLPRPRPRPKVIPRP | -0.259
RRIRMRPPRLPRPRPRPKWAPRP | 0.0251
RRIRMRPPRLPRPRPRPKWKPRP | 0.195

Sequence | shrunken log2 fold change
RRIRMRPPRLPRPRPRPKWVPRP | 0.466
RRIRMRPPRLPRPRPRPKYCPRP | 0.0472
RRIRMRPPRLPRPRPRPLCDPRP | 1.11
RRIRMRPPRLPRPRPRPLDVPRP | 0.287
RRIRMRPPRLPRPRPRPLEQPRP | 0.446
RRIRMRPPRLPRPRPRPLETPRP | 2.02
RRIRMRPPRLPRPRPRPLFYPRP | -0.305
RRIRMRPPRLPRPRPRPLGPPRP | 0.716
RRIRMRPPRLPRPRPRPLGVPRP | 0.8
RRIRMRPPRLPRPRPRPLHGPRP | 0.108
RRIRMRPPRLPRPRPRPLIGPRP | -0.0325
RRIRMRPPRLPRPRPRPLIPPRP | -0.0413
RRIRMRPPRLPRPRPRPLLKPRP | 2.7
RRIRMRPPRLPRPRPRPLLQPRP | 0.616
RRIRMRPPRLPRPRPRPLPYPRP | 0.0635
RRIRMRPPRLPRPRPRPLQFPRP | 0.388
RRIRMRPPRLPRPRPRPLSYPRP | 0.134
RRIRMRPPRLPRPRPRPLVMPRP | 0.0504
RRIRMRPPRLPRPRPRPLVQPRP | 0.199
RRIRMRPPRLPRPRPRPLWCPRP | 0.147
RRIRMRPPRLPRPRPRPLWKPRP | 0.0435
RRIRMRPPRLPRPRPRPLWMPRP | 0.0202
RRIRMRPPRLPRPRPRPLYMPRP | -0.222
RRIRMRPPRLPRPRPRPLYRPRP | -0.0998
RRIRMRPPRLPRPRPRPMDQPRP | -0.0516
